# Laboratory results published in IntAct's records for PubMed 29072299.
# B1: Mothers against decapentaplegic homolog 4 (Mus musculus), P97471 (parent)
# chain: MDNMSITNTPTSNDACLSIVHSLMCHRQGGESETFAKRAIESLVKKLKEKKDELDSLITAITTNGAHPSKCVTIQRTLDGRLQVAGRKGFPHVIYARLWRWPDLHKNELKHVKYCQYAFDLKCDSVCVNPYHYERVVSPGIDLSGLTLQSNAPSMLVKDEYVHDFEGQPSLPTEGHSIQTIQHPPSNRASTETYSAPALLAPAESNATSTTNFPNIPVASTSQPASILAGSHSEGLLQIASGPQPGQQQNGFTAQPATYHHNSTTTWTGSRTAPYTPNLPHHQNGHLQHHPPMPPHPGHYWPVHNELAFQPPISNHPAPEYWCSIAYFEMDVQVGETFKVPSSCPVVTVDGYVDPSGGDRFCLGQLSNVHRTEAIERARLHIGKGVQLECKGEGDVWVRCLSDHAVFVQSYYLDREAGRAPGDAVHKIYPSAYIKVFDLRQCHRQMQQQAATAQAAAAAQAAAVAGNIPGPGSVGGIAPAISLSAAAGIGVDDLRRLCILRMSFVKGWGPDYPRQSIKETPCWIEIHLHRALQLLDEVLHTMPIADPQPLD
# partner: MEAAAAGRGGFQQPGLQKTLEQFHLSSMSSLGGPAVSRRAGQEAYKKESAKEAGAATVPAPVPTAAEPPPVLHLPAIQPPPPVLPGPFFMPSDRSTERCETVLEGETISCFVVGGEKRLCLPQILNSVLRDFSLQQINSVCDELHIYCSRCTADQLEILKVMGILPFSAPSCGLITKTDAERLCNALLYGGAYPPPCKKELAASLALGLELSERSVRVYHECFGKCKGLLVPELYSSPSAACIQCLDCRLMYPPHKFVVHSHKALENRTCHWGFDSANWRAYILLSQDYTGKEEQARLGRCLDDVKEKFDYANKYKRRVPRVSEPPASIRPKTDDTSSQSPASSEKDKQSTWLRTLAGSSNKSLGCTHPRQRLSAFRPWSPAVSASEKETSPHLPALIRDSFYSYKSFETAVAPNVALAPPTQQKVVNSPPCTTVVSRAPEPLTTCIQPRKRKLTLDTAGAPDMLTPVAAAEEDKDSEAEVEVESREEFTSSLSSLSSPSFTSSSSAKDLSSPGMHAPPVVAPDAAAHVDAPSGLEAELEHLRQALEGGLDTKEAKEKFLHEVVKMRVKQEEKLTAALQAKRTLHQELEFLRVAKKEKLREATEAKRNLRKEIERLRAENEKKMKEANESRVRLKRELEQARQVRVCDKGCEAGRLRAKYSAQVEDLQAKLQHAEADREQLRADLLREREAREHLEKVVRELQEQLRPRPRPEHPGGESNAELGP
# Variants of: B1
# Conditions: with ski_mouse Ski
row,Variant,effect of a mutation on the interaction
1,Y429A,disrupting interaction strength
2,A432E,disrupting interaction strength
